Results: the supplement of paper PMC10065799, “High-throughput profiling of sequence recognition by tyrosine kinases and SH2 domains using bacterial peptide display” (eLife, 2023)

Columns and labels:
AncSZ = assay: phosphorylation enrichment, bacterial display (enrichment ratio); higher = better substrate or ligand; peptides without Tyr show the background
EPHB1 = EPHB1 (UniProt P54762); assay: as above
EPHB2 = EPHB2 (UniProt P29323); assay: as above
FGFR1 = FGFR1 (UniProt P11362); assay: as above
Sequence of FGFR1 (P11362 whole entry, looked up): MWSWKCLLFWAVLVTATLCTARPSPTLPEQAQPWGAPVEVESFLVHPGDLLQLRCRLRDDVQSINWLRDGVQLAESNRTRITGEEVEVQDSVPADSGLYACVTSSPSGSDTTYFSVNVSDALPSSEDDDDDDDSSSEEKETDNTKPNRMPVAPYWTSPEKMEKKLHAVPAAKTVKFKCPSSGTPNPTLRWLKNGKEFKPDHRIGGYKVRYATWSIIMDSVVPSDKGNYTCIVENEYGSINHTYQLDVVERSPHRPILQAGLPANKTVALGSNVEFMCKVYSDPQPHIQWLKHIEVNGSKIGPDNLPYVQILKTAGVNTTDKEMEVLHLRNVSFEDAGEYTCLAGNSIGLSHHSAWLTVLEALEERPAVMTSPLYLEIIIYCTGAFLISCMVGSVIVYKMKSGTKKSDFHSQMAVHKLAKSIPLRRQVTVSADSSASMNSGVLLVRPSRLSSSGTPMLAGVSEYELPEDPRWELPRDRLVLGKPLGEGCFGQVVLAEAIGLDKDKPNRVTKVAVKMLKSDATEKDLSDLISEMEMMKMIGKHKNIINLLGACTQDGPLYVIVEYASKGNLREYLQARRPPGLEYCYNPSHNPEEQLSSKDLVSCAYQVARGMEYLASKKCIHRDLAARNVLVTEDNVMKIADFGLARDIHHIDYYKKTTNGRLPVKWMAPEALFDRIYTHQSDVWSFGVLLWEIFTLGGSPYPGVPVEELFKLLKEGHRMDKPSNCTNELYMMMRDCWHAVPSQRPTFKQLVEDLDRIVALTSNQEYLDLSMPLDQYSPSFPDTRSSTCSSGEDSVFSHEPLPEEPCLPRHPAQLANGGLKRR

FGFR3 = FGFR3 (UniProt P22607); assay: as above
Sequence of FGFR3 (P22607 whole entry, looked up): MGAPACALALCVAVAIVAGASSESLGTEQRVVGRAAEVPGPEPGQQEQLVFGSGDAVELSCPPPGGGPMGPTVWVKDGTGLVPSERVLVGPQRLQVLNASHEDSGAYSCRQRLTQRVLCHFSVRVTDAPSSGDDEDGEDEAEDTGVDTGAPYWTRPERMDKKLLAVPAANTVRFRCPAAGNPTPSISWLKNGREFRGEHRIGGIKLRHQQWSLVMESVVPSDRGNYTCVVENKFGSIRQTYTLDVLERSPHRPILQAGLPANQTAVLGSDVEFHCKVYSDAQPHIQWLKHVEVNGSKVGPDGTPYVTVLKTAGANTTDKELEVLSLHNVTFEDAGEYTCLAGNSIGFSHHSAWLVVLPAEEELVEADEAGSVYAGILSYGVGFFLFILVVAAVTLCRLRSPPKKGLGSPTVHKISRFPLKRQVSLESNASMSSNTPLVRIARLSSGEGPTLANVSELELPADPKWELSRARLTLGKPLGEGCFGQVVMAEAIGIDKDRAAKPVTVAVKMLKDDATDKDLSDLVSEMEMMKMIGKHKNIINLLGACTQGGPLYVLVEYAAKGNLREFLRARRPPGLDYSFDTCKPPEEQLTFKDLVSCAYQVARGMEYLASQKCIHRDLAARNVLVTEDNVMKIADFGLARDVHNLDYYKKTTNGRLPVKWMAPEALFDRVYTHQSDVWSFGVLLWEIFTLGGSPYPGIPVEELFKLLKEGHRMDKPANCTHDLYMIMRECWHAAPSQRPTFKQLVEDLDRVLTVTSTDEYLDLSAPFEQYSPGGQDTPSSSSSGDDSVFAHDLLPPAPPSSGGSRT

Fer (mouse) = assay: as above
Fes = Fes (UniProt P07332); assay: as above
Sequence of Fes (P07332 whole entry, looked up): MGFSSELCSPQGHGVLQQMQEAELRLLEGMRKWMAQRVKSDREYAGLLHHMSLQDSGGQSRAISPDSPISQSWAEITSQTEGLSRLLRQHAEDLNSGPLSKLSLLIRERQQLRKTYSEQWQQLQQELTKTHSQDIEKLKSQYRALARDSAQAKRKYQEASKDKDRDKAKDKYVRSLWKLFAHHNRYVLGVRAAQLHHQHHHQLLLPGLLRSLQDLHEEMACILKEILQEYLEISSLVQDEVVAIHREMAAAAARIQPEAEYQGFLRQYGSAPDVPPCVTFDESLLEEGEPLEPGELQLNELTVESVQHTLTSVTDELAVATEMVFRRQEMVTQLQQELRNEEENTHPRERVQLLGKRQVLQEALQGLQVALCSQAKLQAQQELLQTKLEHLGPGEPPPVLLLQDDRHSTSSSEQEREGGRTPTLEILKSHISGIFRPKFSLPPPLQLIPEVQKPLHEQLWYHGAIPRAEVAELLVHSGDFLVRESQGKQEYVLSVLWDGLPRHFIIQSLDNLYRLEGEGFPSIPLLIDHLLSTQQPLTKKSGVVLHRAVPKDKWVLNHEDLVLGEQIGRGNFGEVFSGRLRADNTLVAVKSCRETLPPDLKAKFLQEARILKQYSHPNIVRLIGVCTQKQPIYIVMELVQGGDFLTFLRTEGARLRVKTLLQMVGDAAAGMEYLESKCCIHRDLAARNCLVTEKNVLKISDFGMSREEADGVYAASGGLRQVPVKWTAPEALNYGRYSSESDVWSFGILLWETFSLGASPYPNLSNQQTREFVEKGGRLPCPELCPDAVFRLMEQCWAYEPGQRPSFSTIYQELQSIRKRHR

Fyn = Fyn (UniProt P06241); assay: as above
Sequence of Fyn (P06241 whole entry, looked up): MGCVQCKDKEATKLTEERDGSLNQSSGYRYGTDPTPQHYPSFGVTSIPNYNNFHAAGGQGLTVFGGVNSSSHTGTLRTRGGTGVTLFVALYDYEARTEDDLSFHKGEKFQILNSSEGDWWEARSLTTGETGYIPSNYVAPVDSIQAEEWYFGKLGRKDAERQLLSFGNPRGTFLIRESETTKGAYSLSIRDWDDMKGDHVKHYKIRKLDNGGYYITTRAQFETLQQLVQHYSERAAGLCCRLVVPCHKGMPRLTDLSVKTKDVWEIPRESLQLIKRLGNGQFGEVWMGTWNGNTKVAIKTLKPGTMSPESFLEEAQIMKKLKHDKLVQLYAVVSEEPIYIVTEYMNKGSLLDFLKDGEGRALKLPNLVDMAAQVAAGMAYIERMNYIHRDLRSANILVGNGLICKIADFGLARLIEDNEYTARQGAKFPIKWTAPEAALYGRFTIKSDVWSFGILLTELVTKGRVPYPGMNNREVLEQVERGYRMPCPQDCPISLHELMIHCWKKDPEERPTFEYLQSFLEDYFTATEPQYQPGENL

Hck = Hck (UniProt P08631); assay: as above
Sequence of Hck (P08631 whole entry, looked up): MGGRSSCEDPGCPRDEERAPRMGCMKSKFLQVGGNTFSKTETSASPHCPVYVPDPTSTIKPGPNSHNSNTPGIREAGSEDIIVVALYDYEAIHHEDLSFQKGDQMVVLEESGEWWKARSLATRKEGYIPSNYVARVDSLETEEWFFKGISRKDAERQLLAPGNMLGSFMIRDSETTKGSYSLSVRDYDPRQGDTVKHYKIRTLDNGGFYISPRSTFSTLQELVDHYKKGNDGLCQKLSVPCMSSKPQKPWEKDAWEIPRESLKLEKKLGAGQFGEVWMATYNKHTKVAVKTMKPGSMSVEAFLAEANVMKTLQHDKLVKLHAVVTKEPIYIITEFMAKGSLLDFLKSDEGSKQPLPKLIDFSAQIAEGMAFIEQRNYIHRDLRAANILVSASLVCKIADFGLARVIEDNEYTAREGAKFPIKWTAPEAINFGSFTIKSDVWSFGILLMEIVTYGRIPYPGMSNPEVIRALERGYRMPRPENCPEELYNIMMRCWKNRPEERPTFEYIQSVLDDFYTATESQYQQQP

Jak2 = Jak2 (UniProt O60674); assay: as above
Sequence of Jak2 (O60674 whole entry, looked up): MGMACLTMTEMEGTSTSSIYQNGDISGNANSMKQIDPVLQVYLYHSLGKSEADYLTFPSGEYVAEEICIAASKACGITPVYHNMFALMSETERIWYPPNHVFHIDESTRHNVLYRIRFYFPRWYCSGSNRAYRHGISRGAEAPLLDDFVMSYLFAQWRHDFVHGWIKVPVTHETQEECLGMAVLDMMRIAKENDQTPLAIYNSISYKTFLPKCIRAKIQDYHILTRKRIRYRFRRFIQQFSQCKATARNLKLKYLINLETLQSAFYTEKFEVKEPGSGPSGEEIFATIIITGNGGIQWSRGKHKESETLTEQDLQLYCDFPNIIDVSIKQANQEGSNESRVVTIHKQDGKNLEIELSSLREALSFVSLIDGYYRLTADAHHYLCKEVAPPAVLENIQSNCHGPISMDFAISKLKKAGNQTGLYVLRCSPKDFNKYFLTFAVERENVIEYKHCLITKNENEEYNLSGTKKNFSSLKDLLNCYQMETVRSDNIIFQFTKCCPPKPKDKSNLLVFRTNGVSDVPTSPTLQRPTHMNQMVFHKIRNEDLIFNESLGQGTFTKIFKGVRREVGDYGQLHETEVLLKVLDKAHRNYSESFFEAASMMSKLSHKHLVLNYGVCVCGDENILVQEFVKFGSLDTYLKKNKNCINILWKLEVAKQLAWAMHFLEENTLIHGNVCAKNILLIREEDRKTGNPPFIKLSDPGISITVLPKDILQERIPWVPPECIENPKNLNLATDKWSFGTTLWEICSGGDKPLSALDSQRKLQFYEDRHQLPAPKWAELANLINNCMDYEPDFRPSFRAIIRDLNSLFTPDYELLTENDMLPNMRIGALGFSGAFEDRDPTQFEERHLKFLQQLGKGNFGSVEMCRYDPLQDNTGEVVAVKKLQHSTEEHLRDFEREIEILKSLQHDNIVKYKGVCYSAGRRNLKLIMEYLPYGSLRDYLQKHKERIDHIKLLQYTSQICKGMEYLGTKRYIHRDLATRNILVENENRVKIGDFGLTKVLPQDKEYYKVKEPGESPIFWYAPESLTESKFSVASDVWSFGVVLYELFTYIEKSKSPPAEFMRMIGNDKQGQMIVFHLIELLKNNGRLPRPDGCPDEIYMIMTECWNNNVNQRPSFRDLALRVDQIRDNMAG

MERTK = MERTK (UniProt Q12866); assay: as above
c-Abl (mouse) = assay: as above
c-Src = assay: as above
Grb2 SH2 = Grb2 SH2 (UniProt P62993); assay: SH2 binding enrichment of the phosphorylated peptide, bacterial display (enrichment ratio); higher = better substrate or ligand; peptides without Tyr show the background
Sequence of Grb2 SH2 (P62993 whole entry, looked up): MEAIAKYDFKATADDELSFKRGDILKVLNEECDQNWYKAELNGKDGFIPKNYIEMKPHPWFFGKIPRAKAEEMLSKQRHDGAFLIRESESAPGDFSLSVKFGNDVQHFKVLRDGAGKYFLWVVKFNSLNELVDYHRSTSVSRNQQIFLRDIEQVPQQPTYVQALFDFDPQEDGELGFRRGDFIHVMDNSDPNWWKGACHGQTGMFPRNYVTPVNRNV

SHP2-C SH2 = assay: as above
c-Src SH2 = assay: as above
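For SH2 binding enrichment of the phosphorylated peptide, bacterial display in this document: peptide library displayed on the E. coli surface as eCPX fusions, selected cells deep-sequenced, score is each peptide's frequency after selection divided by its frequency in the input.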
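For phosphorylation enrichment, bacterial display in this document: 11-residue human phosphosite peptides and single-mutation variants displayed on the E. coli surface, counted by deep sequencing, each peptide's frequency after selection divided by its frequency in the unselected input library; frequency after pTyr selection over input frequency; kinase dosed for 20-30% of maximal phosphorylation in three min.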

Sequence	phosphorylation enrichment (AncSZ)	phosphorylation enrichment (EPHB1)	phosphorylation enrichment (EPHB2)	phosphorylation enrichment (FGFR1)	phosphorylation enrichment (FGFR3)	phosphorylation enrichment (Fer (mouse))	phosphorylation enrichment (Fes)	phosphorylation enrichment (Fyn)	phosphorylation enrichment (Hck)	phosphorylation enrichment (Jak2)	phosphorylation enrichment (MERTK)	phosphorylation enrichment (c-Abl (mouse))	phosphorylation enrichment (c-Src)	SH2 binding enrichment (Grb2 SH2)	SH2 binding enrichment (SHP2-C SH2)	SH2 binding enrichment (c-Src SH2)
CTTIHYNYVCN [TP53_Y234_M237V]	0.904	0.616	0.645	0.685	0.648	0.696	0.949	0.556	0.514	0.828	0.498	0.595	0.455	1.36	4.2	7.58
CTTIHYSFMCN [TP53_Y234_N235S_YF]	1.08	0.568	0.572	0.636	0.666	0.942	1	0.563	0.559	0.734	0.843	0.828	0.544	1.88	4.43	2.62
CVVVPYEPPEV [TP53_Y220_S215C]	1.65	0.864	0.641	0.574	1.03	0.854	1.54	0.568	0.599	1.38	0.462	1.01	0.557	0.76	0.576	0.517
CWAVKYLQMVG [AVPR2_Y117_R113W]	1.37	0.622	0.832	0.495	0.703	0.504	1.39	0.413	0.466	1.26	0.386	0.817	0.434	1.26	1.2	0.92
DAAEDYAEGVC [DHODH_Y194_R199C]	1.31	0.801	0.713	0.658	0.895	0.765	1.24	0.566	0.559	1.19	0.492	0.917	0.559	0.816	0.598	0.609
DAGTDYVGISR [FREM2_Y2061]	0.606	0.445	0.492	0.541	0.621	0.459	0.64	0.482	0.545	0.496	0.414	0.54	0.459	0.938	0.758	0.481
DAVAVYDGKIS [SH2D1A_Y7_H8D]	0.721	0.589	0.622	0.44	0.565	0.456	0.988	0.655	2.02	0.778	0.498	0.728	0.83	0.735	0.999	0.47
DAVKHYMQFRK [CNGA2_Y395]	0.46	0.359	0.363	0.344	0.427	0.366	0.558	0.591	0.555	0.44	0.397	0.54	0.441	0.847	0.722	0.461
DDERGYRRVRC [GIGYF2_Y268_S273C]	0.75	0.519	0.551	0.533	0.562	0.513	0.882	0.529	0.483	0.834	0.438	0.647	0.426	1.09	0.788	0.658
DDHFTYSRYPW [LY75_Y888]	1.49	4.66	7.92	0.576	0.969	0.642	1.13	4.82	6.62	1.13	1.23	1.86	5.2	0.531	0.942	0.432
DFFDLYGGEKK [PTPN11_Y66_F71K_YF]	1.17	0.511	0.79	0.562	0.772	0.566	1.38	1.32	2.81	1.16	0.499	0.827	2.26	0.994	0.86	0.601
DFPMGYPSFLA [TBCK_Y153_I151M_YF]	0.64	0.496	0.469	0.424	0.49	0.432	0.832	0.424	0.358	0.691	0.429	0.592	0.428	0.672	0.523	0.354
DFPMGYPSYLA [TBCK_Y153_I151M]	0.65	0.399	0.453	0.412	0.473	0.362	0.751	0.443	0.367	0.663	0.464	0.507	0.416	0.825	0.827	0.572
DFSLKYPTDIP [APC_Y1183_A1184P_YF]	1.03	0.528	0.599	0.459	0.685	0.616	1.18	0.452	0.46	0.943	0.52	0.702	0.534	0.768	0.618	0.386
DGMADCSDPSF [CDC5L_Y459_Y459C_YF]	1.21	0.627	0.659	0.533	0.701	0.627	1.29	0.524	0.6	1.01	0.525	1	0.582	0.984	0.853	0.635
DIDKIYIRTGI [PIK3CA_Y355_V356I]	1.25	0.585	0.543	0.521	0.673	0.839	1.01	0.479	0.481	1.06	0.342	0.576	0.395	0.857	0.896	0.623
